Among the data in patent publication US20180185504A1 are FACS Cell Binding (Fold Above Background), EC50 and EC50, STAT5-luciferase reporter in HEK293/PRLR/STAT5-Luc cells values, retold here.

For orientation: EC50 means the concentration that produces a half-maximal response. Higher therefore signals a need for much substance.

Test [1] has as its target mouse PRLR construct with an HA tag on HEK293/mPRLR cells (mouse) (UniProt Q08501). Nature of the test: FACS on HEK293/mPRLR cells.
The target in test [2] is human prolactin (PRL) (human) (UniProt P01236). Put plainly: ELISA: dimeric PRLR (3.38 pM to 200 nM) on plate-coated human PRL (1 µg/mL), HRP anti-Fc-gamma detection. Background: In an ELISA, binding on a coated surface is turned into a signal by an enzyme label.
human prolactin (PRL) (human), sequence (P01236 29-227 limits assumed): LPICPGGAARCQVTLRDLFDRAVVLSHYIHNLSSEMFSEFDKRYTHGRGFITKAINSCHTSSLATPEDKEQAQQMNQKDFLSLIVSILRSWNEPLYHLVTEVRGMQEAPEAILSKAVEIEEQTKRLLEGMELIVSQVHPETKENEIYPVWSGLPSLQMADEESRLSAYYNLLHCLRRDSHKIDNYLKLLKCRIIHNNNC
Test [3] addresses human prolactin receptor (PRLR) on cells (human) (UniProt P16471). Nature of the test: cell-based or functional assay.

mouse PRLR construct with an HA tag on HEK293/mPRLR cells (mouse), sequence (Q08501 20-608): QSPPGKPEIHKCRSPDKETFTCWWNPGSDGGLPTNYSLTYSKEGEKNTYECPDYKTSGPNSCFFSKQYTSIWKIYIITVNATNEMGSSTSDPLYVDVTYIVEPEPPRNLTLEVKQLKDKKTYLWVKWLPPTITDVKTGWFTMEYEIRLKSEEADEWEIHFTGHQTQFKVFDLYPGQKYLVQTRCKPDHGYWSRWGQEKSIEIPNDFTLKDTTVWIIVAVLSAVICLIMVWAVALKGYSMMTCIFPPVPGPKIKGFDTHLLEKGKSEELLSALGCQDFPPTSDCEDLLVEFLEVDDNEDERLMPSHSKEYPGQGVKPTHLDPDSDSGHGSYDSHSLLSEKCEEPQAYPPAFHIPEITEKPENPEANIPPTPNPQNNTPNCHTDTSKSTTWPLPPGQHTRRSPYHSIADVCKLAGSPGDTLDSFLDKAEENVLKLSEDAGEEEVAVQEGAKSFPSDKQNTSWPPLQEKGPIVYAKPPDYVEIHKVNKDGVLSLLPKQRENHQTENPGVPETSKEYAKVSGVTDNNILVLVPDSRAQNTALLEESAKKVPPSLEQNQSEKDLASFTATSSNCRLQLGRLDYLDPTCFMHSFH
human prolactin receptor (PRLR) on cells (human), sequence (P16471 25-622 limits assumed): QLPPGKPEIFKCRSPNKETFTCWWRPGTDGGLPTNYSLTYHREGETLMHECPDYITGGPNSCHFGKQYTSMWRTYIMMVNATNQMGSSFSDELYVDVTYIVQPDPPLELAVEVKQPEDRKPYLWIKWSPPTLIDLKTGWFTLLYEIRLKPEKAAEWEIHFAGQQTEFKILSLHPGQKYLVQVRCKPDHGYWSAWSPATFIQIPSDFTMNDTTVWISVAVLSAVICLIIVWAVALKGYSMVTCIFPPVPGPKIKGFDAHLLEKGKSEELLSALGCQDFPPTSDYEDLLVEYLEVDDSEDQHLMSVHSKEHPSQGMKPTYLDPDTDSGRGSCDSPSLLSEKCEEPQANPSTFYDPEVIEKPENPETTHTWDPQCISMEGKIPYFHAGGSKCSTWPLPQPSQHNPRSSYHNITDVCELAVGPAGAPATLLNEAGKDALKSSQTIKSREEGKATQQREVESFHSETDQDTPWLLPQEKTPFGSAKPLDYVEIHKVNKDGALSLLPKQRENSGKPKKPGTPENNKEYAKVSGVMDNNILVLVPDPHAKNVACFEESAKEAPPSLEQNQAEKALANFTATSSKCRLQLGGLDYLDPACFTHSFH

Isotype Ctrl I (antibody) showed an FACS Cell Binding (Fold Above Background) in test [1] of 1 fold.

In turn, “dimeric form of cynomolgus monkey (Macaca fascicularis) PRLR (Example 12 ELISA) (Fc fusion)” came in with a half-maximal effective concentration (EC50) in test [2] of 5.7 nM.

In test [3], “human prolactin (PRL) (from UniProt P01236 29-227) (ligand)” had an EC50, STAT5-luciferase reporter in HEK293/PRLR/STAT5-Luc cells of 2.1 nM.
